# Data: the RNAGym collection of RNA variant scans (doi:10.7554/elife.80360)
# B1: Hairpin Ribozyme (parent)
# chain: GUCCUCUUUCACGUGCGCGUGAAAGAGAGAAGUGAACCAGAGAAACACACGUUGUGGUAUAUUACCUGGUA
# Variants of: B1
# Assay: self-cleavage, relative activity (ratio to wild type); higher = more cleavage; co-transcriptional
row,Variant,self-cleavage
1,GUCCUCUUUCACGUGCGCGUGAAAGAGAGAAGUGUACCAGAGAAACACACGUUGUGGUAUAUUACCGGGUA [A35U U67G],0.161
2,GUCCUCUUUCACGUGCGCGUGAAAGAGAGAAGUGUACCAGAGAAACACACGUUGUGGUAUAUUACCAGGUA [A35U U67A],0.126
3,GUCCUCUUUCACGUGCGCGUGAAAGAGAGAAGUGUACCAGAGAAACACACGUUGUGGUAUAUUACCUGCUA [A35U G69C],0.368
4,GUCCUCUUUCACGUGCGCGUGAAAGAGAGAAGUGACCCAGAGAAACACACGUUGUGGUAUAUUACCUGGUA [A36C],0.659
5,GUCCUCUUUCACGUGCGCGUGAAAGAGAGAAGUGACCCAGAGAAACCCACGUUGUGGUAUAUUACCUGGUA [A36C A47C],0.262
6,GUCCUCUUUCACGUGCGCGUGAAAGAGAGAAGUGACCCAGAGAAACUCACGUUGUGGUAUAUUACCUGGUA [A36C A47U],0.29
7,GUCCUCUUUCACGUGCGCGUGAAAGAGAGAAGUGACCCAGAGAACCACACGUUGUGGUAUAUUACCUGGUA [A36C A45C],0.236
8,GUCCUCUUUCACGUGCGCGUGAAAGAGAGAAGUGACCCUGAGAAACACACGUUGUGGUAUAUUACCUGGUA [A36C A39U],0.137
9,GUCCUCUUUCACGUGCGCGUGAAAGAGAGAAGUGACCCGGAGAAACACACGUUGUGGUAUAUUACCUGGUA [A36C A39G],0.363
10,GUCCUCUUUCACGUGCGCGUGAAAGAGAGAAGUGUACCAGAGAAACACUCGUUGUGGUAUAUUACCUGGUA [A35U A49U],0.155
11,GUCCUCUUUCACGUGCGCGUGAAAGAGAGAAGUGUACCAGAGAAACACACGUUGUGGUUUAUUACCUGGUA [A35U A59U],0.117
12,GUCCUCUUUCACGUGCGCGUGAAAGAGAGAAGUGACCCAGAGAAACACACGUUGUGGUUUAUUACCUGGUA [A36C A59U],0.157
13,GUCCUCUUUCACGUGCGCGUGAAAGAGAGAAGUGACCCAGAGAAACACACGUUAUGGUAUAUUACCUGGUA [A36C G54A],0.467
14,GUCCUCUUUCACGUGCGCGUGAAAGAGAGAAGUGACCCAGAGAAACACACGUUUUGGUAUAUUACCUGGUA [A36C G54U],0.33
15,GUCCUCUUUCACGUGCGCGUGAAAGAGAGAAGUGACCCAGAGAAACACACGUUCUGGUAUAUUACCUGGUA [A36C G54C],0.327
16,GUCCUCUUUCACGUGCGCGUGAAAGAGAGAAGUGUACCUGAGAAACACACGUUGUGGUAUAUUACCUGGUA [A35U A39U],0.391
17,GUCCUCUUUCACGUGCGCGUGAAAGAGAGAAGUGUACCGGAGAAACACACGUUGUGGUAUAUUACCUGGUA [A35U A39G],0.433
18,GUCCUCUUUCACGUGCGCGUGAAAGAGAGAAGUGUACCAGAGAAACACACGUUGUGGUAUAGUACCUGGUA [A35U U62G],0
19,GUCCUCUUUCACGUGCGCGUGAAAGAGAGAAGUGUACCAGAGAAACACACGUUGUGGUAUACUACCUGGUA [A35U U62C],0.0853

row,Variant,self-cleavage
1,GUCCUCUUUCACGUGCGCGUGAAAGAGAGAAGUGUACCAGAGAAACACAUGUUGUGGUAUAUUACCUGGUA [A35U C50U],0.18
2,GUCCUCUUUCACGUGCGCGUGAAAGAGAGAAGUGUACCAGAGAAACACACGUUGUGGUAUAUUACCUGGGA [A35U U70G],0.874
3,GUCCUCUUUCACGUGCGCGUGAAAGAGAGAAGUGACCCAGAGAAACACACGUUGUGGUAUAUUACAUGGUA [A36C C66A],0.268
4,GUCCUCUUUCACGUGCGCGUGAAAGAGAGAAGUGACCAAGAGAAACACACGUUGUGGUAUAUUACCUGGUA [A36C C38A],0.253
5,GUCCUCUUUCACGUGCGCGUGAAAGAGAGAAGUGACCUAGAGAAACACACGUUGUGGUAUAUUACCUGGUA [A36C C38U],0.274
6,GUCCUCUUUCACGUGCGCGUGAAAGAGAGAAGUGACCGAGAGAAACACACGUUGUGGUAUAUUACCUGGUA [A36C C38G],0.117
7,GUCCUCUUUCACGUGCGCGUGAAAGAGAGAAGUGUACCAGAGAAACACACGUUCUGGUAUAUUACCUGGUA [A35U G54C],0.0851
8,GUCCUCUUUCACGUGCGCGUGAAAGAGAGAAGUGUACCAGAGAAACACACGUUAUGGUAUAUUACCUGGUA [A35U G54A],0.197
9,GUCCUCUUUCACGUGCGCGUGAAAGAGAGAAGUGUACCAGAGAAACACACGUUGUGGUAUAUUACCUGGUA [A35U],0.811
10,GUCCUCUUUCACGUGCGCGUGAAAGAGAGAAGUGUACCAGAGAUACACACGUUGUGGUAUAUUACCUGGUA [A35U A44U],0.0832
11,GUCCUCUUUCACGUGCGCGUGAAAGAGAGAAGUGUACCAGAGACACACACGUUGUGGUAUAUUACCUGGUA [A35U A44C],0.267
12,GUCCUCUUUCACGUGCGCGUGAAAGAGAGAAGUGUACCACAGAAACACACGUUGUGGUAUAUUACCUGGUA [A35U G40C],0.185
13,GUCCUCUUUCACGUGCGCGUGAAAGAGAGAAGUGUACCAAAGAAACACACGUUGUGGUAUAUUACCUGGUA [A35U G40A],0.154
14,GUCCUCUUUCACGUGCGCGUGAAAGAGAGAAGUGACCCAGAGAAACACACAUUGUGGUAUAUUACCUGGUA [A36C G51A],0.799
15,GUCCUCUUUCACGUGCGCGUGAAAGAGAGAAGUGACCCAGAGAAACACAGGUUGUGGUAUAUUACCUGGUA [A36C C50G],0.131
16,GUCCUCUUUCACGUGCGCGUGAAAGAGAGAAGUGACCCAGAGAAACACAAGUUGUGGUAUAUUACCUGGUA [A36C C50A],0.0511
17,GUCCUCUUUCACGUGCGCGUGAAAGAGAGAAGUGACCCAGAGAAACACACGUUGUGGUAUAUUUCCUGGUA [A36C A64U],0.309
18,GUCCUCUUUCACGUGCGCGUGAAAGAGAGAAGUGUACCAGAGAAACACACGUUGUGGUAUGUUACCUGGUA [A35U A61G],0.137
19,GUCCUCUUUCACGUGCGCGUGAAAGAGAGAAGUGACCCAGAGAAAAACACGUUGUGGUAUAUUACCUGGUA [A36C C46A],0.026
